Measured values taken from paper PMC7654431.

Molecular target: T7 DNA polymerase gp5;thioredoxin (trx) (bacteriophage T7;Escherichia coli, UniProt P00581;P0AA25 1-704;2-109, |)
Test: SEC-SAXS-MALS

Sequence of T7 DNA polymerase gp5;thioredoxin (trx) (P00581 whole entry, chain 1 of 2): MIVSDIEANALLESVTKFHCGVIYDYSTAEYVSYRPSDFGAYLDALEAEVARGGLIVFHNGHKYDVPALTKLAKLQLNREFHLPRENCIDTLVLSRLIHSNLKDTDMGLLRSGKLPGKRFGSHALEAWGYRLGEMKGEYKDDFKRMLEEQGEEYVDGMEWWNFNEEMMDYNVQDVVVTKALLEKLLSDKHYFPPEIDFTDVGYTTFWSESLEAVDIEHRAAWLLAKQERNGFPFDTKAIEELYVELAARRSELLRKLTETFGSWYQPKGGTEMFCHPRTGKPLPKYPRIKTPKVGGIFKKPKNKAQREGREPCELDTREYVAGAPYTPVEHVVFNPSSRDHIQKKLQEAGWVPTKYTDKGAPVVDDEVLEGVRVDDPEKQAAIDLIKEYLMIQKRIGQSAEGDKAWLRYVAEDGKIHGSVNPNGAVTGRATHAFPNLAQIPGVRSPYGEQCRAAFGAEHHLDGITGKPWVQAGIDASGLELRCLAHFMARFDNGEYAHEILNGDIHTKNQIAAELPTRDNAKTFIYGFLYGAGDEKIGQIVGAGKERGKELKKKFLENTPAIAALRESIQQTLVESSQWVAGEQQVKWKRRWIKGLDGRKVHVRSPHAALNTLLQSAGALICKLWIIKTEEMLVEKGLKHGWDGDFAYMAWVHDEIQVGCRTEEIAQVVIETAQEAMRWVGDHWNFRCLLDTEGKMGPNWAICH
Sequence of T7 DNA polymerase gp5;thioredoxin (trx) (P0AA25 2-109, chain 2 of 2): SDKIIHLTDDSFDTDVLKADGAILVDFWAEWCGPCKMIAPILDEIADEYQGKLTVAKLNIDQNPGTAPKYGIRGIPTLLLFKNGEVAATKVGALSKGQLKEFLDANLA

B1: SAXS primer/template (dsDNA)
DNA 1: TGGCAGGCAGGTGGTCTTGCCGGTC
DNA 2: GATCCCTCGACCGGCAAGACCACCTGCCTGCCA
modifications: 3'-terminal ddC on primer
B1: binds.
